Data published in PMC5192385.

Molecular target: depolymerase enzyme encoded by Klebsiella phage KP36 (depoKP36) (Klebsiella phage KP36)
Assay: SEC-MALS; 2 mg of purified, non-aggregated protein on an S200 10/30 column in 200 mM NaCl, 25 mM HEPES, 5% glycerol, pH 7.8; flow 0.5 mL/min

depolymerase enzyme encoded by Klebsiella phage KP36 (depoKP36), sequence (K9L8K6 whole entry): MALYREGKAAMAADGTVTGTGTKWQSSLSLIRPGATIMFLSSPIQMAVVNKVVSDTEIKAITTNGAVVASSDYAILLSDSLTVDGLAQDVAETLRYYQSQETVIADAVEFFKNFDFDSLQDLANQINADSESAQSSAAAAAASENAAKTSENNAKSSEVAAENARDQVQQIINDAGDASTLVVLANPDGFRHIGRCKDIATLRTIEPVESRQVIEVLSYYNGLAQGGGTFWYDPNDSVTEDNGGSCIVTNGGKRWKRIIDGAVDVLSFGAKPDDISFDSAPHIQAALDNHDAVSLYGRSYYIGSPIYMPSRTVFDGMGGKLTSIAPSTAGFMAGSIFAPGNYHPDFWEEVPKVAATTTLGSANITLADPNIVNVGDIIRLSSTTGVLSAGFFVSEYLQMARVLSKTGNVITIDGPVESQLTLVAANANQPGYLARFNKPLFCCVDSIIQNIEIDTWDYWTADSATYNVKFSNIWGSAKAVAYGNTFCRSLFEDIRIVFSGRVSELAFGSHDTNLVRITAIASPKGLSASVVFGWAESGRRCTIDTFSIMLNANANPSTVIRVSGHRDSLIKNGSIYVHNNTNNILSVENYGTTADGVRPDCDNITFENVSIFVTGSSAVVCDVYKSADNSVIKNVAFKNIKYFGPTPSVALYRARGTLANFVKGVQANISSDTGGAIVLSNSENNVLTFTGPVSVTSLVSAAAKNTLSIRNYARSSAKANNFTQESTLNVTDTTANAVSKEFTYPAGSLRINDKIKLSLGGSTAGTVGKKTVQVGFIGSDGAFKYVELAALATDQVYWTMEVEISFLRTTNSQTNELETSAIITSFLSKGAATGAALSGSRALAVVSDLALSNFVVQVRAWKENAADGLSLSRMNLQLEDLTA

Work on “depolymerase enzyme encoded by Klebsiella phage KP36 (depoKP36)” yielded a stoichiometry N of 3.
